Columns and labels:
gp120 SHIV SF162 P3 = gp120 SHIV SF162 P3 (SHIV SF162 P3); experiment: single-point ELISA at EC50 conc. of A-1
gp120 CAAN = gp120 CAAN (HIV (CAAN)); experiment: single-point ELISA at EC50 conc. of A-1
gp120 Bal = gp120 Bal (HIV (Bal)); experiment: single-point ELISA at EC50 conc. of A-1
BSA = BSA (UniProt P02769 25-607); experiment: single-point ELISA, BSA control

Binder	ELISA A450 (gp120 SHIV SF162 P3)	ELISA A450 (gp120 CAAN)	ELISA A450 (gp120 Bal)	ELISA A450 (BSA)
1.35.32-1 (antibody, human IgG1, kappa) heavy: QVQLVQSGAEVKKPGASVRVSCKASGYNIRDYFMHWWRQAPGQGLQWVGWINPKTGQPNNPRQFQGRVTMTRHASWDFDTFSFYMDLSRLRSDDTATYFCARQRTDYWDFDVWGQGTMVTVSSASTKGPSVFPLAPSSKSTSGGTAALGCLVKDYFPEPVTVSWNSGALTSGVHTFPAVLQSSGLYSLSSVVTVPSSSLGTQTYICNVNHKPSNTKVDKKVEPKSCDKTHTCPPCPAPELLAGPDVFLFPPKPKDTLMISRTPEVTCVVVDVSHEDPEVKFNWYVDGVEVHNAKTKPREEQYNSTYRVVSVLTVLHQDWLNGKEYKCKVSNKALPLPEEKTISKAKGQPREPQVYTLPPSREEMTKNQVSLTCLVKGFYPSDIAVEWESNGQPENNYKTTPPVLDSDGSFFLYSKLTVDKSRWQQGNVFSCSVLHEALHSHYTQKSLSLSPGK light: DIQMTQSPSSLSASVGDTVTITCQANGYLNWYQQRRGKAPKLLIYDGSKLERGVPSRFSGRRWGQEYTLTISSLQPEDIATYFCQVYEFVTPGTRLDLKRTVAAPSVFIFPPSDEQLKSGTASVVCLLNNFYPREAKVQWKVDNALQSGNSQESVTEQDSKDSTYSLSSTLTLSKADYEKHKVYACEVTHQGLSSPVTKSFNRGEC	0.58 A450	1.01 A450	0.96 A450	0.06 A450
1.35.34-1 (antibody, human IgG1, kappa) heavy: QVQLVQSGAEVKKPGASVRVSCKASGYNIRDYFMHWWRQAPGQGLQWVGWINPKTGQPNNPRQFQGRVTMTRHASWDFDTFSFYMDLSRLRSDDTATYFCARQRTDYWDFDVWGQGTMVTVSSASTKGPSVFPLAPSSKSTSGGTAALGCLVKDYFPEPVTVSWNSGALTSGVHTFPAVLQSSGLYSLSSVVTVPSSSLGTQTYICNVNHKPSNTKVDKKVEPKSCDKTHTCPPCPAPELLAGPDVFLFPPKPKDTLMISRTPEVTCVVVDVSHEDPEVKFNWYVDGVEVHNAKTKPREEQYNSTYRVVSVLTVLHQDWLNGKEYKCKVSNKALPLPEEKTISKAKGQPREPQVYTLPPSREEMTKNQVSLTCLVKGFYPSDIAVEWESNGQPENNYKTTPPVLDSDGSFFLYSKLTVDKSRWQQGNVFSCSVLHEALHSHYTQKSLSLSPGK light: DIQMTQSPSSLSASVGDTVTITCQANGYLNWYQQRRGKAPKLLIYDGSNLERGVPSRFSGRRWGQEYTLTISSLQPEDIATYFCQVYEFVTPGTRLDIKRTVAAPSVFIFPPSDEQLKSGTASVVCLLNNFYPREAKVQWKVDNALQSGNSQESVTEQDSKDSTYSLSSTLTLSKADYEKHKVYACEVTHQGLSSPVTKSFNRGEC	0.58 A450	0.85 A450	1 A450	0.06 A450
1.36.34-1 (antibody, human IgG1, kappa) heavy: QVQLVQSGAEVKKPGASVRVSCKASGYNIRDYFMHWWRQAPGQGLQWVGWINPKTGQPNNPRQFQGRVTMTRHASWDFDTFSAYMDLSRLRSDDTATYFCARQRTDYWDFDVWGQGTMVTVSSASTKGPSVFPLAPSSKSTSGGTAALGCLVKDYFPEPVTVSWNSGALTSGVHTFPAVLQSSGLYSLSSVVTVPSSSLGTQTYICNVNHKPSNTKVDKKVEPKSCDKTHTCPPCPAPELLAGPDVFLFPPKPKDTLMISRTPEVTCVVVDVSHEDPEVKFNWYVDGVEVHNAKTKPREEQYNSTYRVVSVLTVLHQDWLNGKEYKCKVSNKALPLPEEKTISKAKGQPREPQVYTLPPSREEMTKNQVSLTCLVKGFYPSDIAVEWESNGQPENNYKTTPPVLDSDGSFFLYSKLTVDKSRWQQGNVFSCSVLHEALHSHYTQKSLSLSPGK light: DIQMTQSPSSLSASVGDTVTITCQANGYLNWYQQRRGKAPKLLIYDGSNLERGVPSRFSGRRWGQEYTLTISSLQPEDIATYFCQVYEFVTPGTRLDIKRTVAAPSVFIFPPSDEQLKSGTASVVCLLNNFYPREAKVQWKVDNALQSGNSQESVTEQDSKDSTYSLSSTLTLSKADYEKHKVYACEVTHQGLSSPVTKSFNRGEC	0.15 A450	0.43 A450	1.01 A450	0.07 A450
1.35.33-1 (antibody, human IgG1, kappa) heavy: QVQLVQSGAEVKKPGASVRVSCKASGYNIRDYFMHWWRQAPGQGLQWVGWINPKTGQPNNPRQFQGRVTMTRHASWDFDTFSFYMDLSRLRSDDTATYFCARQRTDYWDFDVWGQGTMVTVSSASTKGPSVFPLAPSSKSTSGGTAALGCLVKDYFPEPVTVSWNSGALTSGVHTFPAVLQSSGLYSLSSVVTVPSSSLGTQTYICNVNHKPSNTKVDKKVEPKSCDKTHTCPPCPAPELLAGPDVFLFPPKPKDTLMISRTPEVTCVVVDVSHEDPEVKFNWYVDGVEVHNAKTKPREEQYNSTYRVVSVLTVLHQDWLNGKEYKCKVSNKALPLPEEKTISKAKGQPREPQVYTLPPSREEMTKNQVSLTCLVKGFYPSDIAVEWESNGQPENNYKTTPPVLDSDGSFFLYSKLTVDKSRWQQGNVFSCSVLHEALHSHYTQKSLSLSPGK light: DIQMTQSPSSLSASVGDTVTITCQANGYLNWYQQRRGKAPKLLIYDGSNLERGVPSRFSGRRWGQEYTLTISSLQPEDIATYFCQVYEFVVPGTNLDIKRTVAAPSVFIFPPSDEQLKSGTASVVCLLNNFYPREAKVQWKVDNALQSGNSQESVTEQDSKDSTYSLSSTLTLSKADYEKHKVYACEVTHQGLSSPVTKSFNRGEC	0.65 A450	0.91 A450	0.9 A450	0.06 A450
1.36.32-1 (antibody, human IgG1, kappa) heavy: QVQLVQSGAEVKKPGASVRVSCKASGYNIRDYFMHWWRQAPGQGLQWVGWINPKTGQPNNPRQFQGRVTMTRHASWDFDTFSAYMDLSRLRSDDTATYFCARQRTDYWDFDVWGQGTMVTVSSASTKGPSVFPLAPSSKSTSGGTAALGCLVKDYFPEPVTVSWNSGALTSGVHTFPAVLQSSGLYSLSSVVTVPSSSLGTQTYICNVNHKPSNTKVDKKVEPKSCDKTHTCPPCPAPELLAGPDVFLFPPKPKDTLMISRTPEVTCVVVDVSHEDPEVKFNWYVDGVEVHNAKTKPREEQYNSTYRVVSVLTVLHQDWLNGKEYKCKVSNKALPLPEEKTISKAKGQPREPQVYTLPPSREEMTKNQVSLTCLVKGFYPSDIAVEWESNGQPENNYKTTPPVLDSDGSFFLYSKLTVDKSRWQQGNVFSCSVLHEALHSHYTQKSLSLSPGK light: DIQMTQSPSSLSASVGDTVTITCQANGYLNWYQQRRGKAPKLLIYDGSKLERGVPSRFSGRRWGQEYTLTISSLQPEDIATYFCQVYEFVTPGTRLDLKRTVAAPSVFIFPPSDEQLKSGTASVVCLLNNFYPREAKVQWKVDNALQSGNSQESVTEQDSKDSTYSLSSTLTLSKADYEKHKVYACEVTHQGLSSPVTKSFNRGEC	0.18 A450	0.5 A450	0.96 A450	0.07 A450
1.31.35-1 (antibody, human IgG1, kappa, V domains shown) VH: QVQLVQSGAEVTKPGASVRVSCEASGYNIRDYFIHWWRQAPGQGLQWVGWINPKTGQPNNPRQFQGRVSLTRHASWDFDTFSFYMDLKALRSDDTATYFCARQRSDYWDFDVWGSGTQVTVSS VL: DIQMTQSPSSLSASVGDRVTITCQANGYLNWYQQKPGKAPKLLIYDGSNLETGVPSRFSGSRWGQEYTLTISSLQPEDIATYFCQVYEFVGPGTNLDIKR	0.61 A450	0.77 A450	0.9 A450	0.06 A450
1.32.35-1 (antibody, human IgG1, kappa, V domains shown) VH: QVQLVQSGAEVTKPGASVRVSCEASGYNIRDYFIHWWRQAPGQGLQWVGWINPKTGQPNNPRQFQGRVSLTRHASWDFDTFSFYMDLKALRSDDTAVYFCARQRTDYWDFDVWGSGTQVTVSS VL: DIQMTQSPSSLSASVGDRVTITCQANGYLNWYQQKPGKAPKLLIYDGSNLETGVPSRFSGSRWGQEYTLTISSLQPEDIATYFCQVYEFVGPGTNLDIKR	0.5 A450	0.59 A450	0.89 A450	0.06 A450

— patent US20240034774A1 (Gilead, published 2024)
